Test results as given in US6132976.
Blank lines part the entries; values can stand above or below the molecule they belong to. Non-standard residues stand in square brackets, D forms with d. No end group written: not given here. Hyp = O=C(O)[C@@H]1C[C@@H](O)CN1

Key:
[1] = biological target: native helical type II collagen
[2] = biological target: heat denatured type II collagen (HDC)
[3] = biological target: monoclonal antibody COL2-3/4m; test: inhibition ELISA with COL2-3/4m, HDC on the plate; sample incubated in Tris/CaCl2 without collagenase

[CB11B] BY INHIBITION ASSAY (µg/ml) of NC + 500 µg/ml CHYMOTRYPSIN [1]: 0 µg/mL
Molecule: α-chymotrypsin (enzyme)

Molecule: chromatographically purified collagenase form III from Clostridium histolyticum (enzyme)
[α1(II)-CB11B] by immunoassay (µg/ml) after treatment [2]: 0.84 µg/mL

[α1(II)-CB11B] by immunoassay [3]: 4.44 µg/mL
B1: synthetic peptide CB11B (peptide)
peptide: CGKVGPSGA[Hyp]GEDGR[Hyp]GP[Hyp]GPQY
